We go through 17 sequences from the DeepSol protein solubility set.

The data set in a line: soluble on expression in E. coli; label from the status in PepcDB or PDB records.
For the sequence “MNGIHDVGGMDGFGKVMYVKEEEDIYFTHDWERLALGLVAGCMAQGLGMKAFDEFRIGIELMRPVDYLTSSYYGHWIATVAYNLVDTGVLDEKELDERTEVFSKKPDTKIPRREDPALVKLVEKALNDGLSPLREISASPRFKVGERIKTKNIHPTGHTRFPRYARDKYGVIDEVYGAHVFPDDAAHRKGENPQYLYRVRFEAEELWGYKQKDSVYIDLWESYMEPVSH”, the “soluble on expression in E. coli” value is listed as “soluble”.
The same measure for “MSLKLILNTQINTKLREIDISNETELIMSNDFPVNKIAMTGKVGYADMQGQRGTMEDALIVDSNIGIYAIFDGHGGHIVSSLSAQRIHERLQSLQNGSEFRELITQAVDSVVGELKEKKVLGGSTMCLVRVGQDKIEVANIGDSRCVAILKDGTQRQLSNDHKPTYRPEVERIREKGSFVSKGRVQGRLAVARAIGDFAVLGIESVIEFTEIDKDIVSRIVIGCDGLYDVVSNEDCLKICNENQSAVTTAYKLRDRAFQRGSTDNISVIVVDCLEGHHHHHH”: “soluble”; for “MATTATRHQDSKLSEKAESILAGFKLNWMNLRDAETGKVLWQSTEDMADPKREHKAHVPKNLLKCRTVSREINFTSSVKIEKFRLEQRVYLKGTIIEEWYFDFGFVIPDSTNTWQNMIEAAPESQMFPPSVLSGNVVVETLFYDGDLLVSTSRVRLYYD”: “not soluble”.
With “MTPTEQAAVRPPLPVKMVIAGGFGVGKTTAVGSISEIVPLTTEAAITEVAAGVDDLTHTPRKTTTTVAMDFGCITIDPTLKLYLFGTPGQDRFGFMWDDLVEGAVGGLVIVDTRRLDDCYAAVDYFEHKQIPFAVALNAFDGRIEHDLDEVRWALDVAERVPVVVFDARERGSVRDALLVVLELALARTGALEHHHHHH”, the “soluble on expression in E. coli” value is reported as “not soluble”.
The result for “MGSDKIHHHHHHMRYAIYFSPAKDHPLTEAASRWLGRNAFSGTLHDDHDDYADLTEEPRRYGFHATLKAPFELAEKYSEAELLAAVEDFAANQSAFEIPRVVVGALGPFFALVPDRVYQPLQDFAAEVVDHFDRFRAPLSETDIARRRPQMLTESQRQNLSLWGYPHVMDDFRFHMTLTGRIDEEEQPAMQEILSTRFAEFVDQPLAISGLALFIEETRGAPFTVHRWHPLGQQPKKDANP” reads “not soluble”; that for “MLKLSKIVLISSLLVLVQQISYAKIGGFELIVNVPIGAGITLVNKNVSVAGNPKLGGNFQIGLEANIGYMFQIMDNMGVSLLGSLGYDFTGFSYSKNNNTENYKNTVHDIYRFLS”, “not soluble”; that for “AIACGDCVEKEYPNRGTTCLENGSFLLNFAGCAVCSKRDFMLITNRSLKEEDGEEIVTYDRIYHAVSVVWQS”, “soluble”.
On to “MRGSHHHHHHTDPHASSVPLEWPLSSQSGSYELRIEVQPKPHHRAHYETEGSRGAVKAPTGGHPVVQLHGYMENKPLGLQIFIGTADERILKPHAFYQVHRITGKTVTTTSYEKIVGNTKVLEIPLEPKNNMRATIDCAGILKLRNADIELRKGETDIGRKNTRVRLVFRVHIPESSGRIVSLQTASNPIECSQRSAHELPMVERQDTDSCLVYGGQQMILTGQNFTSESKVVFTEKTTDGQQIWEMEATVDKDKSQPNMLFVEIPEYRNKHIRTPVKVNFYVINGKRKRSQPQHFTYHPV”, for which the “soluble on expression in E. coli” value is given as “soluble”.
The result for “MTFYYQRLAQQIAHKIYQQQLLPQQKLSSLRDFATQHQVSISTAKSCYEWLEAQGLIYVKPKSGYFVKPKSNVSRLPVSPEFESMPRQVSNLMLQNQIQEASIQNHLIPFGAIQLSPELVPIDGLRRSIQRALKYCKPEDFLYCEKQGHLRLRQALSEHWREDGIYVAPNDIFITNGCMPALSLLIQQLSREGDSILIPTPTFNGQLQLLAGLNRHIIEIPADHTGIDLLRLEQAMQMHQPKLCLLTANYQNPLGYCLADEDKQKIAQLAARYQCIILEDDIYAECSHHGQRPRPIKYWDEAGYVIWVSSVSKSLSSAYRVGWFCIGSQLEPMRPRFLSHNMTVNTPLQLALADFIFSRGYRRHLNQLHPRLMQQVEAYRDVILNAFAPLTIGLSQPQGGYALWLELPDNINSVTLYEVAQQQGISIVPGTVFGEDQRYGHFIRLSVGHALQNEHHAAIIFLADWVKQHC” reads “not soluble”; that for “MGSDKIHHHHHHMDAHRYCQERAAASGSSFYYSFVFLPTEVRRAITAFYALCRELDDVVDECHERQLAELKLAWWREEIGRFAAGAATHPATRALADTARGASVQPALLLEIVDGMAMDLEHARYADFRALKLYCHRAASVVGEIAAGIFEGARGEHDREVRRYAHELGLAFQLTNIIRDVGEDARRGRIYLPLDEMARFGVAEADVLEGRDTPAFRALMQFQYERAVAHYERALATLPSAARRAQRPGLVMAAIYRSLLDEIRRDGFPVLRARIALTPLRKLWLASRTWLFP”, “not soluble”.
The result for “GKPSWLGGGSTQPAQTIPWGIERVKAPSVWSITDGSVSVIQVAVLDTGVDYDHPDLAANIAWCVSTLRGKVSTKLRDCADQNGHGTHVIGTIAALNNDIGVVGVAPGVQIYSVRVLDARGSGSYSDIAIGIEQAILGPDGVADKDGDGIIAGDPDDDAAEVISMSLGGPADDSYLYDMIIQAYNAGIVIVAASGNEGAPSPSYPAAYPEVIAVGAIDSNDNIASFSNRQPEVSAPGVDILSTYPDDSYETLMGTAMATPHVSGVVALIQAAYYQKYGKILPVGTFDDISKNTVRGILHITADDLGPTGWDADYGYGVVRAALAVQAALG” reads “soluble”; that for “MKEIELIATAAAGVESVVKHEVKKLGFKDITVDNGKIMFKGDISSIPRANLWLRSADRVLLKMGEFEALTFEELFDKTYALPWDQWITSDGKFTVLGKSVKSKLFSISDCQAIVKKAVVEKLKSKYHVEWFEESGPEYTIQVALHKDIATLTIDTSGTALHKRGYRAKNVEAPIKETLASAMILISYWNKRKPLWDCFCGSGTIPIEAALIGRNIAPGLNRTFASEEWPAIGKDIWKQERALALRAIDHDIKLKIYGSDINPDAIELAKENACLAGVDDCIEFFVSDFRNVNIKEDYGVIICNPPYGERIGEQQEVETINKDMGKTFSKYDTWSKYIITPFENFERLYGKKADKKRKFYNGNIKVDYYQYFGPKPTNT”, “soluble”; that for “TGKKAILRLSKRAMHLEWKLVKEIIFLGTSGFVMSVTNGFVQIVCNATLQRYGGDIYVGIMTVINSVREIVTMPVTGLTAASQPVIGYNYGAGCYQRVKSA”, “not soluble”.
Take “MAHHHHHHMLHNGKKNPTQAVDDGNPRKSKHREVGSHCKGLDKKENINKSGEEHIKKVEGRENCEPHDIKRRGEIDKVLIQCEELQRKELEALKLIYVRDRELVIQNENDEKRDTIIHMQLNDENISDNVINLTFELPKDYPLKSFLLIDINVKNFTPDMNNYLNQEVYKDMPNYIAHENSILSIIYRINELVENIQNSKKTSVDHSYLSSEEREEYVEEGAFDPSEDQLIKDHVPFLYCSGMTYSHHRRVLARRLCYSHHILSLVKRTYIIKWAKDLKIGGYSKIGYPGIIICEGPKEEVDFYINSLNKLRWKHFDCRGMEDIILKEYEDLDDARVLPRTMYELDPKGMSTLSNICTECGLRDLFLTSMKIYHT”: the “soluble on expression in E. coli” value is listed as “not soluble”.
Take “MSENSENAPEKVEFTPIGYVENDYFKPEYKEEVYEKVSKIVLREDLVDGLYRVEELEKLYILFYFSKSEGYKLIHRRRYDGEMSGVFASRSPYRPNGIGLTLVELLKVEGNVLYVKGLDAINGTPVLDIKPYMKDLEEKEKENTKLEHHHHHH”: the “soluble on expression in E. coli” value is “soluble”.
The result for “MARCSVCGAPAVAYIRYQRRYLCRDHYLEFVESKVERAIMRHRLVGKGDRVLAAVSGGKDSSTLLAVLSRLSRRIGFHVVALYIHLGIYEYSEKSREASIRLASQLDVPLIVFDLNEVLGAGIPELAKASKRPPCSVCGMVKRYVINAAAVELGVDAVALGHNADDIAVYNLKSFLNQDLEAISKLGVKTESIPGVAVGRVRPLYYVYEKESFLYSLLAGLPFLHEEC” reads “not soluble”; that for “MPSGYGVLLATHDDDTVDVFTSGRKMRLTCSPNIDAASLKKGQTVRLNEALTVVEAGTFEAVGEISTLREILADGHRALVVGHADEERVVWLADPLIAEDLPDGLPEALNDDTRPRKLRPGDSLLVDTKAGYAFERIPKAEVEDLVLEELVPR”, “soluble”.
